T1: human IL-23 (human, UniProt Q9NPF7 20-189; P29460 23-328)
T1 construct: also called hIL-23; human recombinant IL-23
T1 sequence (looked up) 1: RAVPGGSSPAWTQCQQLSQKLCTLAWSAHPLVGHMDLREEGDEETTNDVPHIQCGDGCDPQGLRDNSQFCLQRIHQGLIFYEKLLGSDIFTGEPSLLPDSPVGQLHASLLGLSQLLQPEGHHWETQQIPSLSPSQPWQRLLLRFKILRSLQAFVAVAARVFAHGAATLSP
T1 sequence (looked up) 2: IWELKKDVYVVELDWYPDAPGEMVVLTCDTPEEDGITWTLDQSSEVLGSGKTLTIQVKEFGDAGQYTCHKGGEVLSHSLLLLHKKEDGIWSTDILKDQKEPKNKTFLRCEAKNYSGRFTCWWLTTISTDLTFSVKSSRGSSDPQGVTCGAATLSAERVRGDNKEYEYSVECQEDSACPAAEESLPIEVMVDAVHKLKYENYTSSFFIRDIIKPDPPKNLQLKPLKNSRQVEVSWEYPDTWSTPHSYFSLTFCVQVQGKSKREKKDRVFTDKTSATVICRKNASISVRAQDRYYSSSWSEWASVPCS


Tests used:
[1] = target: T2, murine serum albumin (mouse, UniProt P07724 25-608); assay: SPR, albumin captured on CM5 chip
T2 construct: also called MuSA; mouse serum albumin
Method: (§1) The kinetics of selected SABA clones purified from HTPP and/or midscaled material were determined by capturing the respective serum albumin (HSA/RhSA/MuSA) on the surface of a Biasensor CM5 chip and flowing a concentration series of SABAs over both the reference flow cell and the captured albumins. In addition, binding to albumin was carried out under various pH conditions ranging from pH 5.5 to pH 7.4. […] SABA1.1 fits biochemical criteria for pH resistance and affinity/kinetics down to pH 5.5.

[2] = target: T3, human serum albumin (human, UniProt P02768 25-609); assay: SPR (Biacore), albumin captured on CM5 chip, SABA flowed
T3 construct: also called HSA
T3 sequence (P02768 25-609 limits assumed): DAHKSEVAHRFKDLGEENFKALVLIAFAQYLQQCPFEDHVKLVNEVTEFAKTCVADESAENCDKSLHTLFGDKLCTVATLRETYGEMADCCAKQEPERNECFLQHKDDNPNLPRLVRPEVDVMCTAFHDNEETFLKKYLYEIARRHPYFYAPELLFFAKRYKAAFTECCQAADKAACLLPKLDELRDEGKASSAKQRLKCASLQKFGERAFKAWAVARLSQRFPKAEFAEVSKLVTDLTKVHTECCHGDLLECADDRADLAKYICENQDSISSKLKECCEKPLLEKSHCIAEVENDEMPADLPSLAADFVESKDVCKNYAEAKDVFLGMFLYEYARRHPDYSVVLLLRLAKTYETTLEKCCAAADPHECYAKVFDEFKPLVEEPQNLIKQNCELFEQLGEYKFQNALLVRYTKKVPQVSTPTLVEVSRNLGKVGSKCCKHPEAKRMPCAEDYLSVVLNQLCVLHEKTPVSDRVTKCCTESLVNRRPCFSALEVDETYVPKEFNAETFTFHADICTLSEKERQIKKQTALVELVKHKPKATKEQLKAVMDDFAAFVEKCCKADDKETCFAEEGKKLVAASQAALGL
Method: as §1, with “5.5. […]” for “5.5.”

[3] = target: T4, rhesus serum albumin (rhesus, UniProt Q28522 17-600); assay: as above
T4 construct: also called RhSA
T4 sequence (Q28522 17-600 limits assumed): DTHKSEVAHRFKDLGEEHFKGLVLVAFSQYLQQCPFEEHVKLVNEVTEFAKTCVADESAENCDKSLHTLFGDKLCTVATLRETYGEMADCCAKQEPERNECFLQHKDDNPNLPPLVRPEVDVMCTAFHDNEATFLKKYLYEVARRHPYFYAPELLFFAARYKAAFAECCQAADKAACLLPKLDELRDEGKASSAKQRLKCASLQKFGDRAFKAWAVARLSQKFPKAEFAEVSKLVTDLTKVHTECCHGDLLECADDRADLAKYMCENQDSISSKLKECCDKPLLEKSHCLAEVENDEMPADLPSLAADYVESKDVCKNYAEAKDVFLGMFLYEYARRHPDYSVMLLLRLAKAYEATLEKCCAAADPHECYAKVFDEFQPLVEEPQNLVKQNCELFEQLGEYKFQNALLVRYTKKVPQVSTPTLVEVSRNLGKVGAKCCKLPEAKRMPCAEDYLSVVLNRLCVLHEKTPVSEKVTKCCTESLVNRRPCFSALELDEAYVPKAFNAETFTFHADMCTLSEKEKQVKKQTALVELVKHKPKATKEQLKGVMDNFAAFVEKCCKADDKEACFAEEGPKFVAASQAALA
Method: as §1, with “5.5. […]” for “5.5.”

[4] = target: T1, human IL-23; assay: SPR (ProteOn XPR), human IL-23 directly immobilized, 25 C
Method: The binding characteristics were characterized by Surface Plasmon Resonance (SPR). Human IL-23 was immobilized at two to four levels in one dimension of a ProteOn XPR (Bio-Rad) chip surfaces and exposed to 6 different concentrations of anti-IL-23 adnectins in the other dimension of the same SPR chip surface. This allowed kinetic determination in the absence of regeneration. Duplicate chips were used for kinetic determinations at 25° C. and 37° C. Evaluation of the kinetic parameters was performed using the Langmuir interaction model and constant parameter fitting with the ProteOn Manager software.
Even at 37° C. the off rates were close to the limit of detection for SPR technologies so it is possible that the reported dissociation constant measurements are under-estimates.

[5] = target: T1, human IL-23; assay: cell-based or functional assay
[6] = target: T1, human IL-23; assay: cell-based or functional assay; remark: listed apart in the source
[7] = target: T1, human IL-23; assay: SPR, Adnectin captured by anti-His mAb, IL-23 injected
Method: All surface plasmon experiments were conducted in HBS-EP (10 mM Hepes 150 mM NaCl 3 mM EDTA 0.05% Surfactant P20) at 25° C. IL-23 was injected over anti-His mAb captured Adnectins for 2 minutes followed by a 10 minute dissociation phase. Evaluation of the binding specificity was completed using Biacore T100 evaluation software. Additional detailed methods are described in Example 4.

Binder | Kit 225 pSTAT3 IC50 (nM) [5] [nM] | IL-17 EC50 [6] [nM] | IL-22 EC50 [6] [nM] | kon [7] [M⁻¹ s⁻¹] | Kd [7] [nM] | koff [7] [s⁻¹] | further results
SABA3.1 (designed binder) MGVSDVPRDLEVVAATPTSLLISWSNDGPGLSYYRITYGETGGNSPVQEFTVPSSQTTATISGLKPGVDYTITVYAVSYYTKKAYSAGPISINYRTEIDKPSQHHHHHH |  |  |  |  |  |  | binding result [1]: no binding; Kd [2]: 863 nM; koff [2]: 0.0682 s⁻¹; Kd [3]: 431 nM; koff [3]: 0.0337 s⁻¹
SABA2.1 (designed binder) MGVSDVPRDLEVVAATPTSLLISWPKYDKTGHYYRITYGETGGNSPVQEFTVPTRQTTATISGLKPGVDYTITVYAVSKDDYYPHEHRPISINYRTEIDKPSQHHHHHH |  |  |  |  |  |  | binding result [1]: no binding; Kd [2]: 33.8 nM; koff [2]: 0.000171 s⁻¹; Kd [3]: 63.6 nM; koff [3]: 0.000442 s⁻¹
ATI001014 (designed binder, pegylated at the C-terminal GSGC linker (Cys), not shown: his-tag) MGVSDVPRDLEVVAATPTSLLISWGHYPLHVRYYRITYGETGGNSPVQEFTVPPRSHTATISGLKPGVDYTITVYAVTYYAQENYKEIPISINYRTGSGC |  |  |  |  |  |  | Kd [4]: 1.8 nM; koff [4]: 1.7e-05 s⁻¹; kon [4]: 9400 M⁻¹ s⁻¹
ATI000934 (designed binder, pegylated at the C-terminal EIDKPCQ (Cys), also called ATI 934; not shown: his-tag) MGVSDVPRDLEVVAATPTSLLISWGHYPLHLRYYRITYGETGGNSPVQEFTVPRTKYTATISGLKPGVDYTITVYAVTYYKEADYSQIPISINYRTEIDKPCQ |  |  |  |  |  |  | Kd [4]: 1.9 nM; koff [4]: 1.8e-05 s⁻¹; kon [4]: 9400 M⁻¹ s⁻¹
SABA4.1 (designed binder) MGVSDVPRDLEMVAATPTSLLISWEDDSYYSRYYRITYGETGGNSPVQEFTVPSDLYTATISGLKPGVDYTITVYAVTYDVTDLIMHEPISINYRTEIDKPSQHHHHHH |  |  |  |  |  |  | binding result [1]: no binding; Kd [2]: 412 nM; koff [2]: 0.000782 s⁻¹; Kd [3]: > 1000 nM; koff [3]: 0.00383 s⁻¹
1490B03 (designed binder, captured by anti-His mAb) MGVSDVPRDLEVVAATPTSLLISWGHYPLHVRYYRITYGETGGNSPVQEFTVPSRKYTATISGLKPGVDYTITVYAVTYYKEANYREIPISINYRTEIDKPSQHHHHHH | 0.3 | 1.4 | 1.7 | 153000 |  |  | PBMNC pSTAT3 IC50 (nM) [6]: 0.09 nM
1550H05 (designed binder, captured by anti-His mAb) MGVSDVPRDLEVVAATPTSLLISWGHYPLHVRYYRITYGETGGNSPVQEFTVPRQIYTATISGLKPGVDYTITVYAVTYYNEADYSQIPISINYRTEIDKPSQHHHHHH | 1.5 |  |  | 65200 | 3.3 | 0.000212 | 
1490H05 (designed binder, captured by anti-His mAb) MGVSDVPRDLEVVAATPTSLLISWGHYPLHVRYYRITYGETGGNSPVQEFTVPMRQHTATISGLKPGVDYTITVYAVTYYAQENYKEIPISINYRTEIDKPSQHHHHHH | 0.4 | 1.8 | 2.9 | 156000 | 2.1 | 0.000322 | 
1571H03 (designed binder, captured by anti-His mAb) MGVSDVPRDLEVVAATPTSLLISWGHYPLHVRYYRITYGETGGNSPVQEFTVPNRVYTATISGLKPGVDYTITVYAVTYYAQEEYHIIPISINYRTEIDKPSQHHHHHH | 0.4 | 2.9 | 2.3 | 118000 | 3.4 | 0.000395 | 
1550 E06 (designed binder, captured by anti-His mAb) MGVSDVPRDLEVVAATPTSLLISWGHYPMHVRYYRITYGETGGNSPVQEFTVPPPRHTATISGLKPGVDYTITVYAVTYYAQENYKEIPISINYRTEIDKPSQHHHHHH | 0.4 | 1.5 | 2.1 | 55400 | 2.1 | 0.000116 | PBMNC pSTAT3 IC50 (nM) [6]: 1.15 nM
1571F10 (designed binder, captured by anti-His mAb) MGVSDVPRDLEVVAATPTSLLISWGHYPLHIRYYRITYGETGGNSPVQEFTVPSRYHTATISGLKPGVDYTITVYAVTYYEQVEYREIPISINYRTEIDKPSQHHHHHH | 0.1 |  |  | 268000 |  |  | 
1571G06 (designed binder, captured by anti-His mAb) MGVSDVPRDLEVVAATPTSLLISWGHYPLHLRYYRITYGETGGNSPVQEFTVPRTKYTATISGLKPGVDYTITVYAVTYYKEADYSQIPISINYRTEIDKPSQHHHHHH | 0.3 | 3.5 | 5.1 | 131000 | 1.81 | 0.000238 | PBMNC pSTAT3 IC50 (nM) [6]: 0.93 nM
1571G04 (designed binder, captured by anti-His mAb) MGVSDVPRDLEVVAATPTSLLISWGHYPLHVRYYRITYGETGGNSPVQEFTVPPRSHTATISGLKPGVDYTITVYAVTYYAQENYKEIPISINYRTEIDKPSQHHHHHH | 0.1 | 1.4 | 1.3 | 170000 | 2.1 | 0.000361 | PBMNC pSTAT3 IC50 (nM) [6]: 0.23 nM; Kd [4]: 0.2 nM; koff [4]: 1.2e-05 s⁻¹; kon [4]: 57000 M⁻¹ s⁻¹

The next lines start with results.

Kit 225 pSTAT3 IC50 (nM) [5] [nM] | IL-17 EC50 [6] [nM] | IL-22 EC50 [6] [nM] | kon [7] [M⁻¹ s⁻¹] | Kd [7] [nM] | koff [7] [s⁻¹] | Binder | further results
0.05 | 1.6 | 1.9 | 105000 |  |  | 1572G06 (designed binder, captured by anti-His mAb) MGVSDVPRDLEVVAATPTSLLISWGHYPLHVRYYRITYGETGGNSPVQEFTVPRYKYTATISGLKPGVDYTITVYAVTYYAQENYKEIPISINYRTEIDKPSQHHHHHH | PBMNC pSTAT3 IC50 (nM) [6]: 0.21 nM
0.8 |  |  | 65300 |  |  | 1572B10 (designed binder, captured by anti-His mAb) MGVSDVPRDLEVVAATPTSLLISWGHYPMHVRYYRITYGETGGNSPVQEFTVPVPRHTATISGLKPGVDYTITVYAVTYYNEADYSQIPISINYRTEIDKPSQHHHHHH | 
0.01 |  |  | 375000 | 0.61 | 0.00023 | 1572H05 (designed binder, captured by anti-His mAb) MGVSDVPRDLEVVAATPTSLLISWGHYPLHIRYYRITYGETGGNSPVQEFTVPRSKYTATISGLKPGVDYTITVYAVTYYEQVEYREIPISINYRTEIDKPSQHHHHHH | 
3 |  |  | 132000 | 2.2 | 0.000285 | 1572F05 (designed binder, captured by anti-His mAb) MGVSDVPRDLEVVAATPTSLLISWGHYPLHIRYYRITYGETGGNSPVQEFTVPRQKYTATISGLKPGVDYTITVYAVTYYNEADYSQIPISINYRTEIDKPSQHHHHHH | 
4 |  |  | 103000 | 2.9 | 0.000294 | 1572D04 (designed binder, captured by anti-His mAb) MGVSDVPRDLEVVAATPTSLLISWGHYPMHVRYYRITYGETGGNSPVQEFTVPPRRYTATISGLKPGVDYTITVYAVTYYEQPIYATIPISINYRTEIDKPSQHHHHHH | 
0.5 | 7.9 | 5.3 | 60700 |  |  | 1572C09 (designed binder, captured by anti-His mAb) MGVSDVPRDLEVVAATPTSLLISWGHYPMHIRYYRITYGETGGNSPVQEFTVPTPKHTATISGLKPGVDYTITVYAVTYYNEADYSQIPISINYRTEIDKPSQHHHHHH | 

Reference: US20130012436A1 (Bristol-Myers Squibb, published 2013)
